According to patent US20090271163A1 (published 2009):

T1: heavy chain of B-domain deleted human Factor VIII (A1-A2 domains) (human, UniProt P00451 20-1667, oligosaccharide observed linked to Asn 239)
T1 construct: Residues 17-43, 334-376 and 714-754 were not modeled; also called A1-a1-A2-a2
T1 sequence (heavy): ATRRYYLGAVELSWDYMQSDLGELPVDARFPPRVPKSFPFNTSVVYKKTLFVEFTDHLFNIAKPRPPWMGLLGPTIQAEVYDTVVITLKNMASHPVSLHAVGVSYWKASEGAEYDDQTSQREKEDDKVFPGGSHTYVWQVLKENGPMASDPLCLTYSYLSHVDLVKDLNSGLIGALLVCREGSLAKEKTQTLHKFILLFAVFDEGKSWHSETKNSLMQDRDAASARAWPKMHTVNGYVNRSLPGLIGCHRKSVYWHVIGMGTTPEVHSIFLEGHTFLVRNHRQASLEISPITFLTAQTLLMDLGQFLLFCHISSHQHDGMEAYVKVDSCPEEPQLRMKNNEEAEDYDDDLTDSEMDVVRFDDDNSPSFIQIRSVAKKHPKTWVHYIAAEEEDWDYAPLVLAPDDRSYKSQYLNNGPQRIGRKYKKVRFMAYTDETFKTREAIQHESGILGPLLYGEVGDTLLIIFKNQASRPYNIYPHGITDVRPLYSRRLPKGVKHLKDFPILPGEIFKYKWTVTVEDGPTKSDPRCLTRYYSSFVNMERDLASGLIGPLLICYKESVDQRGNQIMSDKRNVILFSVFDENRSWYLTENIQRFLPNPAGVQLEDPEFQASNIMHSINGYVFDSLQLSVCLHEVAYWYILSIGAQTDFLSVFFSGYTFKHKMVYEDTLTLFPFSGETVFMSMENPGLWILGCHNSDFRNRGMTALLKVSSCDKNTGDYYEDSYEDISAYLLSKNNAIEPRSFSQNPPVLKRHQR

B1: light chain of B-domain deleted human Factor VIII (A3-C1-C2 domains) (other)
light: EITRTTLQSDQEEIDYDDTISVEMKKEDFDIYDEDENQSPRSFQKKTRHYFIAAVERLWDYGMSSSPHVLRNRAQSGSVPQFKKVVFQEFTDGSFTQPLYRGELNEHLGLLGPYIRAEVEDNIMVTFRNQASRPYSFYSSLISYEEDQRQGAEPRKNFVKPNETKTYFWKVQHHMAPTKDEFDCKAWAYFSDVDLEKDVHSGLIGPLLVCHTNTLNPAHGRQVTVQEFALFLTIFDETKSWYFTENMERNCRAPCNIQMEDPTFKENYRFHAINGYIMDTLPGLVMAQDQRIRWYLLSMGSNENIHSIHFSGHVFTVRKKEEYKMALYNLYPGVFETVEMLPSKAGIWRVECLIGEHLHAGMSTLFLVYSNKCQTPLGMASGHIRDFQITASGQYGQWAPKLARLHYSGSINAWSTKEPFSWIKVDLLAPMIIHGIKTQGARQKFSSLYISQFIIMYSLDGKKWQTYRGNSTGTLMVFFGNVDSSGIKHNIFNPPIIARYIRLHPTHYSIRSTLRMELMGCDLNSCSMPLGMESKAISDAQITASSYFTNMFATWSPSKARLHLQGRSNAWRPQVNNPKEWLQVDFQKTMKVTGVTTQGVKSLLTSMYVKEFLISSSQDGHQWTLFFQNGKVKVFQGNQDSFTPVVNSLDPPLLTRYLRIHPQSWVHQIALRMEVLGCEAQDLY
modifications: oligosaccharides observed linked to Asn 1810 and Asn 2118
notes: Residues 1649-1690 and 1714-1724 were not modeled; also called a3-A3-C1-C2
B2: B-domain deleted human Factor VIII (other)
heavy: T1 sequence (heavy)
light: B1 light
modifications: oligosaccharides observed linked to Asn 1810 and Asn 2118; oligosaccharide observed linked to Asn 239
notes: Expressed in CHO cells and crystallised; heterodimer of heavy and light chain with 2 Cu2+, 1 Ca2+ and three carbohydrate moieties; also called B-domain deleted recombinant Factor VIII (Wyeth); B domain-deleted FVIII

Experiments:
[1] = biological target: T1, heavy chain of B-domain deleted human …; experiment: X-ray crystal structure
Excerpt: X-ray diffraction data of Factor VIII crystals were collected at the NE-CAT synchrotron beamline ID-24 of the Advanced Photon Source (APS) at Argonne National Laboratory. All xray data were processed using program HKL2000 (Otwinowski, Z. & Minor, W. (1997) in Methods Enzymol (Academic Press, New York), Vol. 276, pp. 307-326) (Table 1).
For structural determination using the molecular replacement method, a homology structure model of Factor VIII was constructed from the known primary sequence of Factor VIII (McCoy, A. J. (2007) Acta Crystallogr D Biol Crystallogr 63, 32-41). Using the template structures of Factor Vai (PDBID: […]) (Sandberg, H., Almstedt, A., Brandt, J., Castro, V. M., Gray, E., Holmquist, L., Lewin, M., Oswaldsson, U., Mikaelsson, M., Jankowski, M. A., Bond, M. & Scoble, H. A. (2001) Semin Hematol 38, 4-12) and ceruloplasmin (PDBID: 1KCW) (Adams, T. E., Hockin, M. F., Mann, K. G. & Everse, S. J. (2004) Proc Natl Acad Sci U SA 101, 8918-23), the structure of the A1 and A2 domains of Factor VIII were initially determined with AMoRe (Murshudov, G. N., Vagin, A. A. & Dodson, E. J. (1997) Acta Crystallogr D Biol Crystallogr 53, 240-55) using the structure of the A1 and A2 domains of the homology model. This yielded clear rotation function and translation function solutions. […]

[2] = biological target: the molecule itself; experiment: X-ray crystal structure, crystal contact

Row | Binder | binding result [1] | binding result [2]
1 | B1 | binds | –
2 | B2 | – | binds
